First the molecules themselves.
B1: IgG1-F1286 (antibody)
heavy: QVQLQESGPGLVKPSETLSLTCAVSGHSISHDHAWSWVRQPPGEGLEWIGFISYSGITNYNPSLQGRVTISRDNSKNTLYLQMNSLRAEDTAVYYCARSLARTTAMDYWGEGTLVTVSSASTKGPSVFPLAPSSKSTSGGTAALGCLVKDYFPEPVTVSWNSGALTSGVHTFPAVLQSSGLYSLSSVVTVPSSSLGTQTYICNVNHKPSNTKVDKKVEPKSCDKTHTCPPCPAPELRGGPKVFLFPPKPKDTLYITRTPEVTCVVVDVSHEDPEVKFNWYVDGVEVHNAKTKPREEQYNSTYRVVSVLTVLHQDWLNGKEYKCKVSNKALPAPIEKTISKAKGQPREPQVYTLPPSRDELTKNQVSLTCLVKGFYPSDIAVEWESNGQPENNYKTTPPVLDSDGSFFLYSKLTVDKSRWQQGNVFSCSVMHEALDYHVTRKELSLSP
light: not shown
notes: EU numbering; copies: 2 + 2
B2: IgG1-F1298 (antibody)
heavy: QVQLQESGPGLVKPSETLSLTCAVSGHSISHDHAWSWVRQPPGEGLEWIGFISYSGITNYNPSLQGRVTISRDNSKNTLYLQMNSLRAEDTAVYYCARSLARTTAMDYWGEGTLVTVSSASTKGPSVFPLAPSSKSTSGGTAALGCLVKDYFPEPVTVSWNSGALTSGVHTFPAVLQSSGLYSLSSVVTVPSSSLGTQTYICNVNHKPSNTKVDKKVEPKSCDKTHTCPPCPAPELRGGPKVFLFPPKPKDTLYISREPEVTCVVVDVSHEDPEVKFNWYVDGVEVHNAKTKPREEQYNSTYRVVSVLTVLHQDWLNGKEYKCKVSNKALPAPIEKTISKAKGQPREPQVYTLPPSRDELTKNQVSLTCLVKGFYPSDIAVEWESNGQPENNYKTTPPVLDSDGSFFLYSKLTVDKSRWQQGNVFSCSVMHEALDYHFTRKELSLSP
light: not shown
notes: EU numbering; copies: 2 + 2
B3: IgG1-F1296 (antibody)
heavy: QVQLQESGPGLVKPSETLSLTCAVSGHSISHDHAWSWVRQPPGEGLEWIGFISYSGITNYNPSLQGRVTISRDNSKNTLYLQMNSLRAEDTAVYYCARSLARTTAMDYWGEGTLVTVSSASTKGPSVFPLAPSSKSTSGGTAALGCLVKDYFPEPVTVSWNSGALTSGVHTFPAVLQSSGLYSLSSVVTVPSSSLGTQTYICNVNHKPSNTKVDKKVEPKSCDKTHTCPPCPAPELRGGPKVFLFPPKPKDTLYISREPEVTCVVVDVSHEDPEVKFNWYVDGVEVHNAKTKPREEQYNSTYRVVSVLTVLHQDWLNGKEYKCKVSNKALPAPIEKTISKAKGQPREPQVYTLPPSRDELTKNQVSLTCLVKGFYPSDIAVEWESNGQPENNYKTTPPVLDSDGSFFLYSKLTVDKSRWQQGNVFSCSVMHEALDYHYTRKELSLSP
light: not shown
notes: EU numbering; copies: 2 + 2
B4: IgG1-F1302 (antibody)
heavy: QVQLQESGPGLVKPSETLSLTCAVSGHSISHDHAWSWVRQPPGEGLEWIGFISYSGITNYNPSLQGRVTISRDNSKNTLYLQMNSLRAEDTAVYYCARSLARTTAMDYWGEGTLVTVSSASTKGPSVFPLAPSSKSTSGGTAALGCLVKDYFPEPVTVSWNSGALTSGVHTFPAVLQSSGLYSLSSVVTVPSSSLGTQTYICNVNHKPSNTKVDKKVEPKSCDKTHTCPPCPAPELRGGPKVFLFPPKPKDTLYISREPEVTCVVVDVSHEDPEVKFNWYVDGVEVHNAKTKPREEQYNSTYRVVSVLTVLHQDWLNGKEYKCKVSNKALPAPIEKTISKAKGQPREPQVYTLPPSRDELTKNQVSLTCLVKGFYPSDIAVEWESNGQPENNYKTTPPVLDSDGSFFLYSKLTVDKSRWQQGNVFSCSVMHEALDYHYTKKDLSLSP
light: not shown
notes: EU numbering; copies: 2 + 2
B5: IgG1-F1292 (antibody)
heavy: QVQLQESGPGLVKPSETLSLTCAVSGHSISHDHAWSWVRQPPGEGLEWIGFISYSGITNYNPSLQGRVTISRDNSKNTLYLQMNSLRAEDTAVYYCARSLARTTAMDYWGEGTLVTVSSASTKGPSVFPLAPSSKSTSGGTAALGCLVKDYFPEPVTVSWNSGALTSGVHTFPAVLQSSGLYSLSSVVTVPSSSLGTQTYICNVNHKPSNTKVDKKVEPKSCDKTHTCPPCPAPELRGGPKVFLFPPKPKDTLMISRTPEVTCVVVDVSHEDPEVKFNWYVDGVEVHNAKTKPREEQYNSTYRVVSVLTVLHQDWLNGKEYKCKVSNKALPAPIEKTISKAKGQPREPQVYTLPPSRDELTKNQVSLTCLVKGFYPSDIAVEWESNGQPENNYKTTPPVLDSDGSFFLYSKLTVDKSRWQQGNVFSCSVMHEALDWHVTRKELSLSP
light: not shown
notes: EU numbering; copies: 2 + 2
B6: IgG1-F1288 (antibody)
heavy: QVQLQESGPGLVKPSETLSLTCAVSGHSISHDHAWSWVRQPPGEGLEWIGFISYSGITNYNPSLQGRVTISRDNSKNTLYLQMNSLRAEDTAVYYCARSLARTTAMDYWGEGTLVTVSSASTKGPSVFPLAPSSKSTSGGTAALGCLVKDYFPEPVTVSWNSGALTSGVHTFPAVLQSSGLYSLSSVVTVPSSSLGTQTYICNVNHKPSNTKVDKKVEPKSCDKTHTCPPCPAPELRGGPKVFLFPPKPKDTLYISREPEVTCVVVDVSHEDPEVKFNWYVDGVEVHNAKTKPREEQYNSTYRVVSVLTVLHQDWLNGKEYKCKVSNKALPAPIEKTISKAKGQPREPQVYTLPPSRDELTKNQVSLTCLVKGFYPSDIAVEWESNGQPENNYKTTPPVLDSDGSFFLYSKLTVDKSRWQQGNVFSCSVMHEALHYHVTKKDLSLSP
light: not shown
notes: EU numbering; copies: 2 + 2
B7: IgG1-F1289 (antibody)
heavy: QVQLQESGPGLVKPSETLSLTCAVSGHSISHDHAWSWVRQPPGEGLEWIGFISYSGITNYNPSLQGRVTISRDNSKNTLYLQMNSLRAEDTAVYYCARSLARTTAMDYWGEGTLVTVSSASTKGPSVFPLAPSSKSTSGGTAALGCLVKDYFPEPVTVSWNSGALTSGVHTFPAVLQSSGLYSLSSVVTVPSSSLGTQTYICNVNHKPSNTKVDKKVEPKSCDKTHTCPPCPAPELRGGPKVFLFPPKPKDTLYISREPEVTCVVVDVSHEDPEVKFNWYVDGVEVHNAKTKPREEQYNSTYRVVSVLTVLHQDWLNGKEYKCKVSNKALPAPIEKTISKAKGQPREPQVYTLPPSRDELTKNQVSLTCLVKGFYPSDIAVEWESNGQPENNYKTTPPVLDSDGSFFLYSKLTVDKSRWQQGNVFSCSVMHEALDYHVTRKELSLSP
light: not shown
notes: EU numbering; copies: 2 + 2
B8: IgG1-F1293 (antibody)
heavy: QVQLQESGPGLVKPSETLSLTCAVSGHSISHDHAWSWVRQPPGEGLEWIGFISYSGITNYNPSLQGRVTISRDNSKNTLYLQMNSLRAEDTAVYYCARSLARTTAMDYWGEGTLVTVSSASTKGPSVFPLAPSSKSTSGGTAALGCLVKDYFPEPVTVSWNSGALTSGVHTFPAVLQSSGLYSLSSVVTVPSSSLGTQTYICNVNHKPSNTKVDKKVEPKSCDKTHTCPPCPAPELRGGPKVFLFPPKPKDTLYISREPEVTCVVVDVSHEDPEVKFNWYVDGVEVHNAKTKPREEQYNSTYRVVSVLTVLHQDWLNGKEYKCKVSNKALPAPIEKTISKAKGQPREPQVYTLPPSRDELTKNQVSLTCLVKGFYPSDIAVEWESNGQPENNYKTTPPVLDSDGSFFLYSKLTVDKSRWQQGNVFSCSVMHEALHYHYTRKELSLSP
light: not shown
notes: EU numbering; copies: 2 + 2
B9: IgG1-F1290 (antibody)
heavy: QVQLQESGPGLVKPSETLSLTCAVSGHSISHDHAWSWVRQPPGEGLEWIGFISYSGITNYNPSLQGRVTISRDNSKNTLYLQMNSLRAEDTAVYYCARSLARTTAMDYWGEGTLVTVSSASTKGPSVFPLAPSSKSTSGGTAALGCLVKDYFPEPVTVSWNSGALTSGVHTFPAVLQSSGLYSLSSVVTVPSSSLGTQTYICNVNHKPSNTKVDKKVEPKSCDKTHTCPPCPAPELRGGPKVFLFPPKPKDTLYISREPEVTCVVVDVSHEDPEVKFNWYVDGVEVHNAKTKPREEQYNSTYRVVSVLTVLHQDWLNGKEYKCKVSNKALPAPIEKTISKAKGQPREPQVYTLPPSRDELTKNQVSLTCLVKGFYPSDIAVEWESNGQPENNYKTTPPVLDSDGSFFLYSKLTVDKSRWQQGNVFSCSVMHEALDYHVTKKDLSLSP
light: not shown
notes: EU numbering; copies: 2 + 2
B10: IgG1-F1300 (antibody)
heavy: QVQLQESGPGLVKPSETLSLTCAVSGHSISHDHAWSWVRQPPGEGLEWIGFISYSGITNYNPSLQGRVTISRDNSKNTLYLQMNSLRAEDTAVYYCARSLARTTAMDYWGEGTLVTVSSASTKGPSVFPLAPSSKSTSGGTAALGCLVKDYFPEPVTVSWNSGALTSGVHTFPAVLQSSGLYSLSSVVTVPSSSLGTQTYICNVNHKPSNTKVDKKVEPKSCDKTHTCPPCPAPELRGGPKVFLFPPKPKDTLYISREPEVTCVVVDVSHEDPEVKFNWYVDGVEVHNAKTKPREEQYNSTYRVVSVLTVLHQDWLNGKEYKCKVSNKALPAPIEKTISKAKGQPREPQVYTLPPSRDELTKNQVSLTCLVKGFYPSDIAVEWESNGQPENNYKTTPPVLDSDGSFFLYSKLTVDKSRWQQGNVFSCSVMHEALHYHTTKKDLSLSP
light: not shown
notes: EU numbering; copies: 2 + 2
B11: IgG1-F1295 (antibody)
heavy: QVQLQESGPGLVKPSETLSLTCAVSGHSISHDHAWSWVRQPPGEGLEWIGFISYSGITNYNPSLQGRVTISRDNSKNTLYLQMNSLRAEDTAVYYCARSLARTTAMDYWGEGTLVTVSSASTKGPSVFPLAPSSKSTSGGTAALGCLVKDYFPEPVTVSWNSGALTSGVHTFPAVLQSSGLYSLSSVVTVPSSSLGTQTYICNVNHKPSNTKVDKKVEPKSCDKTHTCPPCPAPELRGGPKVFLFPPKPKDTLYISREPEVTCVVVDVSHEDPEVKFNWYVDGVEVHNAKTKPREEQYNSTYRVVSVLTVLHQDWLNGKEYKCKVSNKALPAPIEKTISKAKGQPREPQVYTLPPSRDELTKNQVSLTCLVKGFYPSDIAVEWESNGQPENNYKTTPPVLDSDGSFFLYSKLTVDKSRWQQGNVFSCSVMHEALHYHFTRKELSLSP
light: not shown
notes: EU numbering; copies: 2 + 2
B12: IgG1-F1291 (antibody)
heavy: QVQLQESGPGLVKPSETLSLTCAVSGHSISHDHAWSWVRQPPGEGLEWIGFISYSGITNYNPSLQGRVTISRDNSKNTLYLQMNSLRAEDTAVYYCARSLARTTAMDYWGEGTLVTVSSASTKGPSVFPLAPSSKSTSGGTAALGCLVKDYFPEPVTVSWNSGALTSGVHTFPAVLQSSGLYSLSSVVTVPSSSLGTQTYICNVNHKPSNTKVDKKVEPKSCDKTHTCPPCPAPELRGGPKVFLFPPKPKDTLYISRTPEVTCVVVDVSHEDPEVKFNWYVDGVEVHNAKTKPREEQYNSTYRVVSVLTVLHQDWLNGKEYKCKVSNKALPAPIEKTISKAKGQPREPQVYTLPPSRDELTKNQVSLTCLVKGFYPSDIAVEWESNGQPENNYKTTPPVLDSDGSFFLYSKLTVDKSRWQQGNVFSCSVMHEALDYHVTQKSLSLSP
light: not shown
notes: EU numbering; copies: 2 + 2

T1 sequence (P55899 24-297 limits assumed, chain 1 of 2): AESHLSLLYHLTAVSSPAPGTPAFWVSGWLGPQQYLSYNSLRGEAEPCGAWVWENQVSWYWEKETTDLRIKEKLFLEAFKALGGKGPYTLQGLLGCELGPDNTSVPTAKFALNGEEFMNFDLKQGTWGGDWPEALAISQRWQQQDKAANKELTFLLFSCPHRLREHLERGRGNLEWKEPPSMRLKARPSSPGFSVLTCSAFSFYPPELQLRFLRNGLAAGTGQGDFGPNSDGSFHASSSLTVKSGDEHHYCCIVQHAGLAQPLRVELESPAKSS
T1 sequence (P61769 21-119 limits assumed, chain 2 of 2): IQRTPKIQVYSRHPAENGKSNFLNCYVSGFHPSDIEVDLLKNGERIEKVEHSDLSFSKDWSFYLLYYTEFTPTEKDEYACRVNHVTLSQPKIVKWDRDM

This assay concerns the target T1, soluble human FcRn (human, UniProt P55899 24-297; P61769 21-119).
T1 construct: Heterodimer of FcRn alpha chain and beta2-microglobulin; also called hFcRn
Briefly: SPR (Biacore T100), antibody captured by protein L, hFcRn as analyte, pH 7.0, 25 C.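 Also: KD calculated from fitted association and dissociation rate constants of the sensorgrams, protein L amine-coupled to the sensor chip, sodium phosphate running buffer with NaCl and Tween20.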
For B1, the Kd was 160 nM. In turn, B2 had a Kd of 150 nM. This Kd and that of the molecule before are within 1.5-fold of each other. In the case of B3, the Kd is 230 nM.

In the case of B4, the Kd was 220 nM. Then B5, with 420 nM; and B6, with 79 nM.

For B7, binding was characterised by a dissociation constant (Kd) of 130 nM.

The molecule B8 displayed a Kd of 160 nM. This Kd and that of the molecule before are within 1.5-fold of each other. The value for B9 was 110 nM; that for B10 was 160 nM. Then B11, with 98 nM. The value for B12 was 150 nM.

As usually defined, the Kd is the constant that tells how readily two partners part at equilibrium. The low end stands for higher affinity, the high end for lower affinity.

The record behind these values is US20140363428A1 (Chugai, published 2014).
